The target in series [1] is T1, SpCas9-His (Streptococcus pyogenes, UniProt Q99ZW2 1-1368). The series is described as follows: SPR. For orientation: SPR reads the build-up and loss of mass on a sensor chip optically.
Series [2] deals with T1, SpCas9-His. The series is described as follows: EMSA. (Mobility shift assays separate free from complexed probe on a gel.)

T1 sequence (Q99ZW2 whole entry): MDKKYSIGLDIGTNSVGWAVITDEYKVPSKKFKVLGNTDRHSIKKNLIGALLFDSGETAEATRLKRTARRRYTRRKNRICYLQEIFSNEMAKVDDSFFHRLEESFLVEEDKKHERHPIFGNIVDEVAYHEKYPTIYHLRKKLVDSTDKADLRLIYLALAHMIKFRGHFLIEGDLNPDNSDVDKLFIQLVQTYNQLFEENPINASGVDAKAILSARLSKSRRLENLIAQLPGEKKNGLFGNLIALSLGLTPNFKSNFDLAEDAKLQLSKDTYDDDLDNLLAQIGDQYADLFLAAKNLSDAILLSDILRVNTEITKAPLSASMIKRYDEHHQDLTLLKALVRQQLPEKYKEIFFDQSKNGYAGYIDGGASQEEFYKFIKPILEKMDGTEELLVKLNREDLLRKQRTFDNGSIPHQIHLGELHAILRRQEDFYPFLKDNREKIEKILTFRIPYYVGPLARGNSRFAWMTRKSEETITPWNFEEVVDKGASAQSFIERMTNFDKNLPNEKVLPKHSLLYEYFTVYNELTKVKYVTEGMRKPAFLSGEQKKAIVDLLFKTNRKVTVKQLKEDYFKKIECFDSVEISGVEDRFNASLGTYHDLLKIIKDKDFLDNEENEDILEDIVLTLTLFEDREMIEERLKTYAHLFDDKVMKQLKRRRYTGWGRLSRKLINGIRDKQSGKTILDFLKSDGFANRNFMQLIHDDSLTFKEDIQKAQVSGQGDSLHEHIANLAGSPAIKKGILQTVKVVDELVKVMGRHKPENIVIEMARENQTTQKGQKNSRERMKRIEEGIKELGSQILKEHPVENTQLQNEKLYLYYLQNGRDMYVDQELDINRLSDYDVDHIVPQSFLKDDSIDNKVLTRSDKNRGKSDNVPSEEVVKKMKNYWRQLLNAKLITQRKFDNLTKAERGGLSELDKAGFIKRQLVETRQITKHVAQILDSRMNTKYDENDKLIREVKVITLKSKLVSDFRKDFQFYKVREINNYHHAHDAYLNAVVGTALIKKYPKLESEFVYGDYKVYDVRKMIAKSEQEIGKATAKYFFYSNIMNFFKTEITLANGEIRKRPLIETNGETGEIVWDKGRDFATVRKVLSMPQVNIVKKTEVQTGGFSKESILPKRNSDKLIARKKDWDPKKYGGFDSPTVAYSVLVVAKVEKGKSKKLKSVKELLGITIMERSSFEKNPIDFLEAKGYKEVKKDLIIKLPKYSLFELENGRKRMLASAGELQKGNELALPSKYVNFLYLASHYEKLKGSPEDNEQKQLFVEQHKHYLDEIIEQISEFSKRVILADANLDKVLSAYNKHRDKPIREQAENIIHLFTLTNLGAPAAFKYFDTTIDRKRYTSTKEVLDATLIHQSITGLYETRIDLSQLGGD

Turning to GAGGCTCTCACAGTAATGTGAGAGCCT (structured_DNA) [Loop-NC for Biacore], in series [1], the binding result is “no binding”.
GAGGCTCTCACATCGCGCCTTTCCCCAGCTTTCGGTGTGAGAGCCTC (structured_DNA) [S21 for Biacore] returned a Kd in series [1] of 630 pM.
Consider GAGGCTCTCACAGCGCGCCTTTCGTTGTGAGAGCCTC (structured_DNA) [SS21 NM2], for which, in series [2], the binding result is “no binding”.
On to GAGGCTCTCACAGTAATGTGAGAGCCT (structured_DNA) [Loop-NC for EMSA], for which the binding result in series [2] was “no binding”.
On the same count and under the same terms, then GGTCCTCACACCGCTGTGTGCCGCAACACTGTGAGGACC (structured_DNA) [SA-Ap (streptavidin aptamer)], with “no binding”.

A word on the Kd: it is the equilibrium constant for the complex coming apart. Read a high Kd as a looser complex.

The values are drawn from publication PMC7897479.
